The source of these data is US20220315967A1, “METHODS FOR PRODUCING D-TRYPTOPHAN AND SUBSTITUTED D-TRYPTOPHANS” (priority 2019, published 2022).

The target of data set [1] is T1, D-tryptophanyl-S-IvoA-ΔC(E^0).
T1 chain: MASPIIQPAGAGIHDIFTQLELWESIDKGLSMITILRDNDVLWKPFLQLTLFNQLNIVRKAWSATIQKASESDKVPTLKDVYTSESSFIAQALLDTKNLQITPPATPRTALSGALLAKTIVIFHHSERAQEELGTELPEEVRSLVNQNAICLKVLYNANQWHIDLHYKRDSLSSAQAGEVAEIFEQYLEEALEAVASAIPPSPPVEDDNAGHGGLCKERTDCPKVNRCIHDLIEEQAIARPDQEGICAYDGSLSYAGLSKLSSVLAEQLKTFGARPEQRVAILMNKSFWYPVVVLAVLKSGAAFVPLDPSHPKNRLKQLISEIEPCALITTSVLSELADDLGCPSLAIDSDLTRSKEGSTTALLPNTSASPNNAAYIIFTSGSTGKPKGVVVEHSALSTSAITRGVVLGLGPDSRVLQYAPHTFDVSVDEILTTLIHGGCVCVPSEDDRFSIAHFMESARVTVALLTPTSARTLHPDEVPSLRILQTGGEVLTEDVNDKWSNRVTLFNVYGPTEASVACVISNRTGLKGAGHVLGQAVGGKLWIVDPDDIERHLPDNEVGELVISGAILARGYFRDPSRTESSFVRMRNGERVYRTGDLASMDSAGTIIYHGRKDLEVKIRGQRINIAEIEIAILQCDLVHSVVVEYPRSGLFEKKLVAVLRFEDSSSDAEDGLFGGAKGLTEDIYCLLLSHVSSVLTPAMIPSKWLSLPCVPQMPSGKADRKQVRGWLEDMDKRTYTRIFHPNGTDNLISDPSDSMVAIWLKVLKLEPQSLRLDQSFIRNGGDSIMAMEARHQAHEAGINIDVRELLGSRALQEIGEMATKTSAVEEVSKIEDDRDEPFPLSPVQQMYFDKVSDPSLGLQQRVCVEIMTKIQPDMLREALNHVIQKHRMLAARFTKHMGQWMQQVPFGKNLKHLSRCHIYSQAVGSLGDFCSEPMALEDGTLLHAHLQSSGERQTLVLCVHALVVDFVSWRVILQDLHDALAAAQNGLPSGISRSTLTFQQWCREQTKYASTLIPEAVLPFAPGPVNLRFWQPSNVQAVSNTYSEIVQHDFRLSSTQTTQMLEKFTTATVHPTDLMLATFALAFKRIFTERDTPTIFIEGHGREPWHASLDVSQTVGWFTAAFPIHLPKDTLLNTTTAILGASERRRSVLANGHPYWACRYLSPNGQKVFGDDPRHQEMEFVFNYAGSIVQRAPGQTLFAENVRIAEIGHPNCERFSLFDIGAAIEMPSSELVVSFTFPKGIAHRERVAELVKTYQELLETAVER

Data set [2] has as its target T2, IvoA-ΔC truncation mutant.
T2 chain: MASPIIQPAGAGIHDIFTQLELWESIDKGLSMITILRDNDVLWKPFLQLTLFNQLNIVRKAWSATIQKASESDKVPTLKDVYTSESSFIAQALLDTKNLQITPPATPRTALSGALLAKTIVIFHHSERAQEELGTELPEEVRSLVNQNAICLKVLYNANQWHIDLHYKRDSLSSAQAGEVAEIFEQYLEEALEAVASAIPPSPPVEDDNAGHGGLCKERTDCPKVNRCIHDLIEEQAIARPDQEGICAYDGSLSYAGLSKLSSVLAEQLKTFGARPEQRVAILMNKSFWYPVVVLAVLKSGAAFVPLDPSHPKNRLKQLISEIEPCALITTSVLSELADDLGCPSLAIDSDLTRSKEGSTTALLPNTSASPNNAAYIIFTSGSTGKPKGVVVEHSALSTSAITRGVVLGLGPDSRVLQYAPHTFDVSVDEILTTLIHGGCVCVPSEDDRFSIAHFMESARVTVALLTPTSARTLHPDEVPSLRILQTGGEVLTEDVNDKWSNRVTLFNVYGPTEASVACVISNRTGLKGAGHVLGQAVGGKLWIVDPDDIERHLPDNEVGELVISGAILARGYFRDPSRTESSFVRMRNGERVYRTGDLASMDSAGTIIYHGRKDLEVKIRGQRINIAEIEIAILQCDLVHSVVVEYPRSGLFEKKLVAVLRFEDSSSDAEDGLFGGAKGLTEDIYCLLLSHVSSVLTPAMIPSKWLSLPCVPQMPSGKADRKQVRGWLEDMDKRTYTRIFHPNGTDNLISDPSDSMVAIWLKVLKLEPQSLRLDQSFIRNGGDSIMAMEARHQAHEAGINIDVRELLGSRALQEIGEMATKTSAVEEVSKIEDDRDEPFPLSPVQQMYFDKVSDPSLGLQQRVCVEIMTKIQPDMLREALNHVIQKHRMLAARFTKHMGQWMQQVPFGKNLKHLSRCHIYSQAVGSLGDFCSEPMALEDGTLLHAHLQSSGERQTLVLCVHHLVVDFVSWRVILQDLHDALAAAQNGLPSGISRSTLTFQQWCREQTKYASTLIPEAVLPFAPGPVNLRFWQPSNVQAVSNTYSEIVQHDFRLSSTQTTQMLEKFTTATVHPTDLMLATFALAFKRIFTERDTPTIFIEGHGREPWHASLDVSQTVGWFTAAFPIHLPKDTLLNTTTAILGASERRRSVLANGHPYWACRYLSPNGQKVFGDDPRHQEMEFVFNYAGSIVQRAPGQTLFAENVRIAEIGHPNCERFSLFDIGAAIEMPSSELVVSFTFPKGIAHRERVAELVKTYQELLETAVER

Data set [3] deals with T3, L-tryptophanyl-S-IvoA-ΔC(E^0).
T3 chain: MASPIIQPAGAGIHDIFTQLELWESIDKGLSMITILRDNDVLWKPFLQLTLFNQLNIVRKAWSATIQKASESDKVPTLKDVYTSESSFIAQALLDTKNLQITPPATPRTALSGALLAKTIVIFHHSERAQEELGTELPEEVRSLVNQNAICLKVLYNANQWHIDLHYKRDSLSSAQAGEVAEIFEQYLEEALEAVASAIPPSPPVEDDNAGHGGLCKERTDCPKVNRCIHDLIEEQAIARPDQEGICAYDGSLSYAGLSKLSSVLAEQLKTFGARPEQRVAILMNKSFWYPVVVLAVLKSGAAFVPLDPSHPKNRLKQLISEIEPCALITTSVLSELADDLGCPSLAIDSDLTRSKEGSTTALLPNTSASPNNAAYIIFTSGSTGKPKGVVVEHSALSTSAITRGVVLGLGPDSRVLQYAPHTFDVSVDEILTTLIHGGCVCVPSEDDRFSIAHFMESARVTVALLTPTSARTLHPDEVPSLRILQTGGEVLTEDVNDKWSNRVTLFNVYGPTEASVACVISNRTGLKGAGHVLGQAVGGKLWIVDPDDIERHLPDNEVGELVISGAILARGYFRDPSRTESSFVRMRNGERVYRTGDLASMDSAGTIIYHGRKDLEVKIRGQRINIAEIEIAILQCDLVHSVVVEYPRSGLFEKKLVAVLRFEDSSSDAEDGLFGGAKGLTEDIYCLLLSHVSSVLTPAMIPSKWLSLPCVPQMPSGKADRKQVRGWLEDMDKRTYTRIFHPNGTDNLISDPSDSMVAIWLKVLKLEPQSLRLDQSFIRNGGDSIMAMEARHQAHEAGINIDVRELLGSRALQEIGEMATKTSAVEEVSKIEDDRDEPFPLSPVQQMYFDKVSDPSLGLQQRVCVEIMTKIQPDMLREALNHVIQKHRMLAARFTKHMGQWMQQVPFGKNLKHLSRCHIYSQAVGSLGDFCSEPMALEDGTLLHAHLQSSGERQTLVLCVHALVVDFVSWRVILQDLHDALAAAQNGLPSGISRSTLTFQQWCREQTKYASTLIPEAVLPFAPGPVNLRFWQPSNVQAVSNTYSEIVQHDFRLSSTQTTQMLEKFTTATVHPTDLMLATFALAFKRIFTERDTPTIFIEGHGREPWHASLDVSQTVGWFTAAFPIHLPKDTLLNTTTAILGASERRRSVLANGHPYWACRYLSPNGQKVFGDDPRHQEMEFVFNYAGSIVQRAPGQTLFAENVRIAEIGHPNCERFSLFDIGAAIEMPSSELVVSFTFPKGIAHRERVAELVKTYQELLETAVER

B1: standalone IvoA-C (condensation (C) domain of Aspergillus nidulans single-module NRPS IvoA) (protein)
chain: DLDLSAKLSSPLVCPADVVRSLEVNGVCIERDVEIVYTPSSIQQHMLWRQSQEPWFYRVQGDWTIEKTTTQSEPVDIDRLSHAWNQVVHRHTTLRTVFRYSSEEERFVAIVLHEVKPAISIIRKGIQTSGSLCRDDDLSPPHRMVLREKDNGSVVCELEFSHTIIDAASRSIVVQDLLDAYDGKLAHRPLDFPPFWEYIRLAQSSTPSARKEELHRAGRVVTLPFQPTHVLSKVPEACKKNEITISSFFMTAWSIVLAKHFVAHNQRVDSTSSQAVAFDYVLSDRSANIPGIESAVGPYIRLPTLETHVKEGVSLKNIARGLHAQCTFQSLSQSTQDGSSLELPSKATALQKYSTLVNIRNSGSDSLDLVSDSGEWKWILQGFSDPWDYDLVFAVNVHAGKVTGWTVEYADGVVEHSAADEIAKDLNDVVERMVCEII
Take B1: the “IvoA-C catalyzed hydrolysis of the protein-bound thioester; liberated free tryptophan quantified by LC-MS” value in data set [1] and in data set [3] was “IvoA-C stereoselectively hydrolyzed D-tryptophanyl-S-IvoA-ΔC(E^0) over L-tryptophanyl-S-IvoA-ΔC(E^0)” throughout. Besides, the “stereoinversion activity (complementation in trans)” value in data set [2] is “Addition of IvoA-C in equimolar to either IvoA(C^0) mutant or IvoA-ΔC truncation mutant successfully rescued the impaired stereoinversion activity”.
